The values below come from patent US6774212 (Bristol-Myers Squibb, dated 2004).

The target in this assay is T1, HCV NS3 protease catalytic domain (amino acids 1 to 192), genotype 1a (Hepatitis C virus, genotype 1a, UniProt P26664 1027-1218).
T1 construct: domain: NS3 protease catalytic domain (amino acids 1 to 192); Expressed in E. coli BL21(DE3) and purified to >95%; also called HCV NS3 1a protease; Hepatitis C Virus NS3 protease
Description: active-site titration of NS3 protease; linear plots of Activity vs. [inhibitor], protease concentration from the x-intercept.

Square brackets hold non-standard residues; d marks the D form. Ends that are not written are not given here. * marks the point of attachment. boroAlg = alpha-aminoboronic acid analogue of L-2-amino-4-pentenoic acid (1-amino-3-butenylboronic acid, -B(OH)2 in place of -COOH), C=CC[C@H](N*)B(O)O

T1 sequence (P26664 1027-1218): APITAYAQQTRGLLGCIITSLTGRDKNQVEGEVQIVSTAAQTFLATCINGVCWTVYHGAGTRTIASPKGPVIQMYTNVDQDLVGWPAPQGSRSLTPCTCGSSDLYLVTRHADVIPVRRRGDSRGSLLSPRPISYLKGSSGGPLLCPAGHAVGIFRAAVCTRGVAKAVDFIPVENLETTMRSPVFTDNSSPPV

B1: H-Asp-Glu-Val-Val-Pro-boroAlg-OH (peptide)
peptide: H-DEVVP[boroAlg]
notes: Peptide boronic acid used as titrant to determine the protease concentration
On to B1, for which the binding result is on record as “binds”.
